According to the RNAGym collection of RNA variant scans (doi:10.7554/elife.80360):

B1: Hammerhead Ribozyme (parent)
chain: ACCGGAUGUGCUUUCCGGUCUGAUGAGUCCGUGAGGACGAAACAG

Variants of: B1
Experiment: self-cleavage, relative activity (ratio to wild type); higher = more cleavage; co-transcriptional

| Variant | self-cleavage |
| --- | --- |
| ACCGGAUGUGCUUGCCGGGCUGAUGAGUCCGUGAGGACGAAACAG [U14G U19G] | 0.422 |
| ACCGGAUGUGCUUUCCGGUCUGAUGAGUCCGGGAGGACUAAACAG [U32G G39U] | 0.317 |
| AUCGGAUGUGCUUUCCGGUGUGAUGAGUCCGUGAGGACGAAACAG [C2U C20G] | 0.37 |
| ACCGGAUGUGCUUUCCGCUCUGAUGAGUCCGUGAGGACCAAACAG [G18C G39C] | 0.289 |
| ACCGGAUGUGCUUGCCGGUCUGCUGAGUCCGUGAGGACGAAACAG [U14G A23C] | 0.36 |
| ACCGGAUGCGCUUUCCGGUCUGAUGAGUCCGUGAGGAAGAAACAG [U9C C38A] | 0.618 |
| ACCGGAUGUUUUUUCCGGUCUGAUGAGUCCGUGAGGACGAAACAG [G10U C11U] | 1.14 |
| ACCGGAUGUGCUUUCCGGUCUGAUGAGUCCGAGAGGACGAAACAG [U32A] | 0.949 |
| ACCGGAUGUGCAUUCCGGUUUGAUGAGUCCGUGAGGACGAAACAG [U12A C20U] | 0.431 |
| ACCGGUCGUGCUUUCCGGUCUGAUGAGUCCGUGAGGACGAAACAG [A6U U7C] | 0.356 |
| ACGGUAUGUGCUUUCCGGUCUGAUGAGUCCGUGAGGACGAAACAG [C3G G5U] | 0.305 |
| ACGGGAUGUGCUUUCCGGUCUUAUGAGUCCGUGAGGACGAAACAG [C3G G22U] | 0.276 |
| ACCGGAUGGGCUUUCCGGUCUGAUGAGUCCGUGAGGAUGAAACAG [U9G C38U] | 0.876 |
| CCCGGAUGUGCUUACCGGUCUGAUGAGUCCGUGAGGACGAAACAG [A1C U14A] | 0.348 |
| ACCGGAUGUGCUUUCAGGUCUGAUGUGUCCGUGAGGACGAAACAG [C16A A26U] | 0.59 |
| AACGGAUGUGCUUUCCGGUCUGAUGAGUCCGUGAGGACGAAACGG [C2A A44G] | 0.989 |
| ACCGGAUGUGGUUUCUGGUCUGAUGAGUCCGUGAGGACGAAACAG [C11G C16U] | 1.23 |
| ACCGGAUGUGCUUUCCGGUCUCAUGAGUCGGUGAGGACGAAACAG [G22C C30G] | 0.351 |
| ACCGGAUGUGCUUUCCGGUCUGAUGAGUCGGUGAGGACCAAACAG [C30G G39C] | 0.334 |

| Variant | self-cleavage |
| --- | --- |
| ACCGGAUGUGCAAUCCGGUCUGAUGAGUCCGUGAGGACGAAACAG [U12A U13A] | 1.23 |
| ACCGGAUGUGCUUUCCGGUUUGAUGAGUCCGUGAGGACCAAACAG [C20U G39C] | 0.362 |
| ACCGGAUGUGCUUCCCGGUCUGAUGAUUCCGUGAGGACGAAACAG [U14C G27U] | 0.331 |
| ACCGGAUGUGCUUUCCGGCCUGAUUAGUCCGUGAGGACGAAACAG [U19C G25U] | 0.273 |
| ACCGGAUGUGCUUUCCGGUGUGAUGAGUCCGCGAGGACGAAACAG [C20G U32C] | 0.325 |
| ACCGGAUGUGCUUUCCGGUCUGAUGAGUCCGUGAUGACGAAACCG [G35U A44C] | 0.384 |
| ACCGGAUGUGCUUUCCGGUCUGAUGAGUCCGUGAGGAAAAAACAG [C38A G39A] | 0.325 |
| ACCGGACGUGCUUUCCGGUCUGAUGAUUCCGUGAGGACGAAACAG [U7C G27U] | 0.412 |
| ACCGGAUGUGCUUUCGGGUCUGAUGAGUUCGUGAGGACGAAACAG [C16G C29U] | 0.646 |
| ACCGGAUGUGCUUUCCGGCCUGAUGAGUCCGUGAAGACGAAACAG [U19C G35A] | 0.64 |
| ACCGGAUGUGCUUUCCGGUCUGGUGAGUCCGUGUGGACGAAACAG [A23G A34U] | 0.364 |
| ACCGGAUGUGCUUUCCGGUCUGCUGAGGCCGUGAGGACGAAACAG [A23C U28G] | 0.398 |
| ACGGGAUGGGCUUUCCGGUCUGAUGAGUCCGUGAGGACGAAACAG [C3G U9G] | 0.407 |
| ACCGGAUGUGCAUUCCGGUCUGAUGAGUCCGUGAGGACGAAGCAG [U12A A42G] | 0.252 |
| ACCUGAUGUUCUUUCCGGUCUGAUGAGUCCGUGAGGACGAAACAG [G4U G10U] | 0.558 |
| ACCGGAUGUGCUUUCCGGUCUGAUGAGUCCGCGAGGACGAAGCAG [U32C A42G] | 0.364 |
| ACCGGAUGUGCAUUCCGGUCUGAUGAGUCCGAGAGGACGAAACAG [U12A U32A] | 0.698 |
| CCCGGAUGUGCUUUCCGGUCUGAAGAGUCCGUGAGGACGAAACAG [A1C U24A] | 0.471 |
| ACCGGAUGUGCUUUCCGGUCUGAUGAGUCCGUGAGGACGAAAUCG [C43U A44C] | 1.93 |

| Variant | self-cleavage |
| --- | --- |
| ACCGGAUGUGCUUUCCGGUCUGAUGAGUGCUUGAGGACGAAACAG [C29G G31U] | 0.777 |
| ACCGGAUGUGCUUUCCGGUCUGAAGAGUCCGUGAGGAAGAAACAG [U24A C38A] | 0.696 |
| ACCGGAUGUGCUUUCCAGCCUGAUGAGUCCGUGAGGACGAAACAG [G17A U19C] | 0.23 |
| ACCGGAUGUGCUUUCCGGGCAGAUGAGUCCGUGAGGACGAAACAG [U19G U21A] | 0.323 |
| ACCGGAUGUGCUUUCGGGUCUGAUGAGUCCGGGAGGACGAAACAG [C16G U32G] | 0.882 |
| ACCGGAUGUGCUUUCCGGCCUGAUGAGUCAGUGAGGACGAAACAG [U19C C30A] | 0.416 |
| ACCGGAUCUGCUUUCCGGUCUGAUGUGUCCGUGAGGACGAAACAG [G8C A26U] | 0.827 |
| ACCGGAUGUGCUUUCUGGUCUGAUGAGUCCGUGAGGACGAAACAU [C16U G45U] | 0.688 |
| ACCGGAUGUGCUUUCCGGUCCGAUGUGUCCGUGAGGACGAAACAG [U21C A26U] | 0.503 |
| ACCGGAUGUUCUUUCCGGUCUGAUGAGUCCGUGAGGACGAAAGAG [G10U C43G] | 0.405 |
| ACCGGAUGUGCUUUCCGGUUUGAUGAGUCCGUGAGUACGAAACAG [C20U G36U] | 0.359 |
| ACCGGAUGUGCUUUCCGUUCUGGUGAGUCCGUGAGGACGAAACAG [G18U A23G] | 0.288 |
| ACCGGAUGUGCUUUCAGGCCUGAUGAGUCCGUGAGGACGAAACAG [C16A U19C] | 0.39 |
| ACGGGAUGUGCUUUCCGGUGUGAUGAGUCCGUGAGGACGAAACAG [C3G C20G] | 0.317 |
| ACCGGAUGUGCUUUCCGGUCUGAUGAGUCCGUGAGGGCCAAACAG [A37G G39C] | 0.371 |
| AGCGGAUGUGCUUUCCGGUCUGAUGAGUCCGUCAGGACGAAACAG [C2G G33C] | 0.443 |
| ACCGGAUGUGCUUUGCGCUCUGAUGAGUCCGUGAGGACGAAACAG [C15G G18C] | 0.353 |
| ACCAGAUGUGCUUUCCGGUCUGAUGAUUCCGUGAGGACGAAACAG [G4A G27U] | 0.366 |
| ACCGGAUGUGCUUUCCGGUCUGAACAGUCCGUGAGGACGAAACAG [U24A G25C] | 0.366 |
